Results: article PMC5199193, “Structure of the transporter associated with antigen processing trapped by herpes simplex virus” (eLife, 2016)

Biological target: T1, transporter associated with antigen processing (TAP), heterodimer of TAP1 and TAP2 (human, UniProt Q03518 1-748; Q03519 1-686)
T1 construct: TAP1, human; TMD0 is in the construct (no density seen for it); TAP2, human; model holds residues 130-681; also called human TAP; source: lysed cells incubated with purified ICP47, solubilised in DDM, purified (IgG Sepharose, Superose 6); not shown: Protein A, C-terminal, cleaved
T1 sequence 1: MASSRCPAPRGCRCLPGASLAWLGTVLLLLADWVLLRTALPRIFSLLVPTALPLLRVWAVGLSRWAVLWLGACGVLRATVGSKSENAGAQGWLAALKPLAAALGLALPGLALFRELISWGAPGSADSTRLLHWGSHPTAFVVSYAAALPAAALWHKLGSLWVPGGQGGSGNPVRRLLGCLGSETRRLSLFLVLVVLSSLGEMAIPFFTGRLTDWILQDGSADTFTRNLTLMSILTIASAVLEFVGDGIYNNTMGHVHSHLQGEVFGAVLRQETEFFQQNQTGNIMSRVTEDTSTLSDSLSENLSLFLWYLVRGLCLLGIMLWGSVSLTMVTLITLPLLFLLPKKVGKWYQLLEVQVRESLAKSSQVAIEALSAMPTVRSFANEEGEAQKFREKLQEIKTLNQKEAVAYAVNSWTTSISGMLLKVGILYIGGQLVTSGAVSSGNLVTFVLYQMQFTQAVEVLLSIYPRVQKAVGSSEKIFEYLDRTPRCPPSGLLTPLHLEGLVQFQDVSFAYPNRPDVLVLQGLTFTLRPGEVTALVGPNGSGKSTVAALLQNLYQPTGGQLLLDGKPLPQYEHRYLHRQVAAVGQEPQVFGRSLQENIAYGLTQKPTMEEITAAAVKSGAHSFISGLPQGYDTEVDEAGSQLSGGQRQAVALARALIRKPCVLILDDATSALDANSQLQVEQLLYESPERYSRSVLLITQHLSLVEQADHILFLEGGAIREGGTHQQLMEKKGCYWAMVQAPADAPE
T1 sequence 2: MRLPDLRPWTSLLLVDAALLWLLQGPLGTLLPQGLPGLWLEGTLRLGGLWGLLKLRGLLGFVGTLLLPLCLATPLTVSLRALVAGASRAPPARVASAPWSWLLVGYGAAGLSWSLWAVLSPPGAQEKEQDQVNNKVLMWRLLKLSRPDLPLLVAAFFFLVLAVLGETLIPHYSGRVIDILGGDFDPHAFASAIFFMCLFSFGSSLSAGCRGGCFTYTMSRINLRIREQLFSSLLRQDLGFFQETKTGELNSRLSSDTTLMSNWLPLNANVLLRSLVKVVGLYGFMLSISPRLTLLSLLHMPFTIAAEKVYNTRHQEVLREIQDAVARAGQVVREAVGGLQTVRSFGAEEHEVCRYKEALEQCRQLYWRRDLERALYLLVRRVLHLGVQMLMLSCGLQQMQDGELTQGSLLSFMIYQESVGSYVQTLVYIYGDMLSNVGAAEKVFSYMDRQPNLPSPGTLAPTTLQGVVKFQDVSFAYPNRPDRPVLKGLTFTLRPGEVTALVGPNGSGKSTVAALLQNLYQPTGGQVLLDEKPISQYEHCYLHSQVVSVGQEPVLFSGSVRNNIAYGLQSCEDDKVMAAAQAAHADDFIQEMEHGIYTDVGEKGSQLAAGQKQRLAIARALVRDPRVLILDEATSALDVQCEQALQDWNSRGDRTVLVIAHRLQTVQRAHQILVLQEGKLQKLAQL
Experiment: cryo-EM structure; purified TAP/ICP47 complex (2 mg/ml) in 20 mM Hepes pH 7.4, 150 mM NaCl, 2 mM TCEP, 1 mM DDM, 1 mM C12E8; complex formed by incubating lysed Pichia cells co-expressing TAP1 and TAP2 with purified ICP47; 4.0 Å
Details: both partners purified

B1: ICP47 of herpes simplex virus 1 (natural protein)
chain: MSWALEMADTFLDTMRVGPRTYADVRDEINKRGREDREAARTAVHDPERPLLRSPGLLPEIAPNASLGVAHRRTGGTVTDSPRNPVTR
notes: ICP47, HSV-1; the N-terminal 55 residues are ordered and the C-terminal 33 residues have no density (88 residues together); also called HSV-1 ICP47; source: E. coli, purified via the GST tag
binding result: binds
